Our source for the Kd, koff and kon values is patent US20190202907A1 (180 THERAPEUTICS, published 2019).

The target of assay [1] is T1, human ST2L (human, UniProt Q01638 19-328, limits assumed).
T1 construct: also called IL-1R4; IL-33Ra
T1 sequence (looked up): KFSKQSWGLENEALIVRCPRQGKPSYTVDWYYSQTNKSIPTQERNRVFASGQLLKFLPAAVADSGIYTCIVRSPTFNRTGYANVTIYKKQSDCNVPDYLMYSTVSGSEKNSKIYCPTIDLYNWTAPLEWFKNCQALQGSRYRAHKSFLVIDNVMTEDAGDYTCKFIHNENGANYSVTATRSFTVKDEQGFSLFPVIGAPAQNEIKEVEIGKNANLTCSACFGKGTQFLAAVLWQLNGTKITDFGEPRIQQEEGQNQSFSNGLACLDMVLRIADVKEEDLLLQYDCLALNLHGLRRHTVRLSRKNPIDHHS
The experiment in a line: affinity table; method not stated.

The target of assay [2] is cyno ST2L (cyno). The experiment in a line: affinity table; method not stated.

B1: STLM123 (antibody, from another filing, V domains shown)
VH: EVQLLESGGGLVQPGGSLRLSCAASGFTFSDYAMFWVRQAPGKGLEWVSAIEGEGGETNYADSVKGRFTISRDNSKNTLYLQMNSLRAEDTAVYYCARDPWSTEGSFFVLDYWGQGTLVTVSS
VL: EIVLTQSPATLSLSPGERATLSCRASQSVDDDLAWYQQKPGQAPRLLIYDASNRATGIPARFSGSGSGTDFTLTISSLEPEDFAVYYCQQYITAPLTFGQGTKVEIK
As a reminder, the Kd is the constant that tells how readily two partners part at equilibrium. What is called koff is the rate constant with which the complex falls apart. Broadly, the kon is the rate constant with which the complex forms. In assay [1], B1 gave a Kd of 0.015 nM, a koff of 0.000208 s⁻¹ and an on-rate constant (kon) of 1.37e+07 M⁻¹ s⁻¹. In assay [2], this molecule displayed a Kd of 0.005 nM, a koff of 0.000519 s⁻¹ and a kon of 1e+08 M⁻¹ s⁻¹.

B2: STLM214 (antibody, from another filing, V domains shown)
VH: EVQLLESGGGLVQPGGSLRLSCAASGFTFSSYDMFWVRQAPGKGLEWVSDIKGEGGRTAYADSVKGRFTISRDNSKNTLYLQMNSLRAEDTAVYYCARDPWSTEGSFFVLDYWGQGTLVTVSS
VL: EIVLTQSPATLSLSPGERATLSCRASQSVDDDLAWYQQKPGQAPRLLIYDASNRATGIPARFSGSGSGTDFTLTISSLEPEDFAVYYCQQYIDAPLTFGQGTKVEIK
For B2, in assay [1], the Kd turned out to be 0.033 nM, the koff came out at 0.000299 s⁻¹ and the kon was determined as 9.16e+06 M⁻¹ s⁻¹. Also, in assay [2], the Kd was found to be 0.037 nM, the koff turned out to be 0.000264 s⁻¹ and the kon was 7.2e+06 M⁻¹ s⁻¹.

B3: STLM210 (antibody, from another filing, V domains shown)
VH: EVQLLESGGGLVQPGGSLRLSCAASGFTFSDDAMIWVRQAPGKGLEWVSYIGGNGGTTYYADSVKGRFTISRDNSKNTLYLQMNSLRAEDTAVYYCARDPWSTEGSFFVLDYWGQGTLVTVSS
VL: EIVLTQSPATLSLSPGERATLSCRASQSVDDDLAWYQQKPGQAPRLLIYDASNRATGIPARFSGSGSGTDFTLTISSLEPEDFAVYYCQQYNDAITFGQGTKVEIK
In assay [1], B3 showed a Kd of 0.019 nM, a koff of 0.000227 s⁻¹ and a kon of 1.21e+07 M⁻¹ s⁻¹. In assay [2], this molecule showed a Kd of 0.009 nM, a koff of 0.000528 s⁻¹ and a kon of 5.7e+07 M⁻¹ s⁻¹.

B4: STLM206 (antibody, from another filing, V domains shown)
VH: EVQLLESGGGLVQPGGSLRLSCAASGFTFSIYDMIWVRQAPGKGLEWVSTIRGEGGSTYYADSVKGRFTISRDNSKNTLYLQMNSLRAEDTAVYYCARDPWSTEGSFFVLDYWGQGTLVTVSS
VL: EIVLTQSPATLSLSPGERATLSCRASQSVDDDLAWYQQKPGQAPRLLIYDASNRATGIPARFSGSGSGTDFTLTISSLEPEDFAVYYCQQYITAPLTFGQGTKVEIK
B4: in assay [1], the Kd is 0.025 nM, the off-rate (koff) is 0.00016 s⁻¹ and the kon turned out to be 6.39e+06 M⁻¹ s⁻¹. In assay [2], the dissociation constant Kd was found to be 0.006 nM, the koff is 0.000583 s⁻¹ and the kon amounted to 9.4e+07 M⁻¹ s⁻¹.

B5: STLM208 (antibody, V domains shown)
VH: EVQLLESGGGLVQPGGSLRLSCAASGFTFSIYDMIWVRQAPGKGLEWVSSIRGEGGGTYYADSVKGRFTISRDNSKNTLYLQMNSLRAEDTAVYYCARDPWSTEGSFFVLDYWGQGTLVTVSS
VL: EIVLTQSPATLSLSPGERATLSCRASQSVDDDLAWYQQKPGQAPRLLIYDASNRATGIPARFSGSGSGTDFTLTISSLEPEDFAVYYCQQYITAPLTFGQGTKVEIK
Regarding B5, in assay [1], the Kd came out at 0.011 nM, the koff was 6.76e-05 s⁻¹ and the kon is 5.97e+06 M⁻¹ s⁻¹. In assay [2], this molecule showed a Kd of 0.005 nM, a koff of 7.02e-05 s⁻¹ and a kon of 1.39e+07 M⁻¹ s⁻¹.

B6: STLM213 (antibody, from another filing, V domains shown)
VH: EVQLLESGGGLVQPGGSLRLSCAASGFTFSFYDMIWVRQAPGKGLEWVSTIRGEGGDTNYADSVKGRFTISRDNSKNTLYLQMNSLRAEDTAVYYCARDPWSTEGSFFVLDYWGQGTLVTVSS
VL: EIVLTQSPATLSLSPGERATLSCRASQSVDDDLAWYQQKPGQAPRLLIYDASNRATGIPARFSGSGSGTDFTLTISSLEPEDFAVYYCQQYIDAPLTFGQGTKVEIK
In assay [1], B6 returned a dissociation constant (Kd) of 0.014 nM, a koff of 0.000108 s⁻¹ and an on-rate constant (kon) of 7.54e+06 M⁻¹ s⁻¹. In assay [2], this molecule returned a Kd of 0.008 nM, a koff of 0.000124 s⁻¹ and a kon of 1.64e+07 M⁻¹ s⁻¹.

B7: STLM207 (antibody, from another filing, V domains shown)
VH: EVQLLESGGGLVQPGGSLRLSCAASGFTFSSYDMIWVRQAPGKGLEWVSTIRGEGGTTAYADSVKGRFTISRDNSKNTLYLQMNSLRAEDTAVYYCARDPWSTEGSFFVLDYWGQGTLVTVSS
VL: EIVLTQSPATLSLSPGERATLSCRASQSVDDDLAWYQQKPGQAPRLLIYDASNRATGIPARFSGSGSGTDFTLTISSLEPEDFAVYYCQQYITAPLTFGQGTKVEIK
In assay [1], B7 displayed a Kd of 0.048 nM, a koff of 0.000395 s⁻¹ and a kon of 8.33e+06 M⁻¹ s⁻¹. In assay [2], this molecule displayed a Kd of 0.021 nM, a koff of 0.00207 s⁻¹ and a kon of 1e+08 M⁻¹ s⁻¹.

B8: STLM209 (antibody, from another filing, V domains shown)
VH: EVQLLESGGGLVQPGGSLRLSCAASGFTFSIYDMIWVRQAPGKGLEWVSTIRGEGGGTSYADSVKGRFTISRDNSKNTLYLQMNSLRAEDTAVYYCARDPWSTEGSFFVLDYWGQGTLVTVSS
VL: EIVLTQSPATLSLSPGERATLSCRASQSVDDDLAWYQQKPGQAPRLLIYDASNRATGIPARFSGSGSGTDFTLTISSLEPEDFAVYYCQQYITAPLTFGQGTKVEIK
In assay [1], B8 came in with a Kd of 0.026 nM, a koff of 0.00017 s⁻¹ and a kon of 6.59e+06 M⁻¹ s⁻¹. In assay [2], this molecule yielded a Kd of 0.009 nM, a koff of 0.000311 s⁻¹ and a kon of 3.39e+07 M⁻¹ s⁻¹.

B9: STLM212 (antibody, from another filing, V domains shown)
VH: EVQLLESGGGLVQPGGSLRLSCAASGFTFSVYDMIWVRQAPGKGLEWVSTIRGEGGGTYYADSVKGRFTISRDNSKNTLYLQMNSLRAEDTAVYYCARDPWSTEGSFFVLDYWGQGTLVTVSS
VL: EIVLTQSPATLSLSPGERATLSCRASQSVDDDLAWYQQKPGQAPRLLIYDASNRATGIPARFSGSGSGTDFTLTISSLEPEDFAVYYCQQYNDAITFGQGTKVEIK
As to B9, in assay [1], the Kd came out at 0.032 nM, the koff came to 0.000398 s⁻¹ and the kon turned out to be 1.24e+07 M⁻¹ s⁻¹. Also, in assay [2], the Kd was found to be 0.024 nM, the koff is 0.000346 s⁻¹ and the kon is 1.43e+07 M⁻¹ s⁻¹.

B10: STLM124 (antibody, from another filing, V domains shown)
VH: EVQLLESGGGLVQPGGSLRLSCAASGFTFSIYDMIWVRQAPGKGLEWVSTIKGEGGGTYYADSVKGRFTISRDNSKNTLYLQMNSLRAEDTAVYYCARDPWSTEGSFFVLDYWGQGTLVTVSS
VL: EIVLTQSPATLSLSPGERATLSCRASQSVDDDLAWYQQKPGQAPRLLIYDASNRATGIPARFSGSGSGTDFTLTISSLEPEDFAVYYCQQYITAPLTFGQGTKVEIK
In the case of B10, in assay [1], the Kd was 0.046 nM, the koff stood at 0.000756 s⁻¹ and the kon is 1.65e+07 M⁻¹ s⁻¹. In assay [2], this molecule returned a Kd of 0.03 nM, a koff of 0.00257 s⁻¹ and a kon of 8.71e+07 M⁻¹ s⁻¹.

B11: STLM211 (antibody, from another filing, V domains shown)
VH: EVQLLESGGGLVQPGGSLRLSCAASGFTFSGYAMIWVRQAPGKGLEWVSYIEGEGGETYYADSVKGRFTISRDNSKNTLYLQMNSLRAEDTAVYYCARDPWSTEGSFFVLDYWGQGTLVTVSS
VL: EIVLTQSPATLSLSPGERATLSCRASQSVDDDLAWYQQKPGQAPRLLIYDASNRATGIPARFSGSGSGTDFTLTISSLEPEDFAVYYCQQYNDAITFGQGTKVEIK
For the molecule B11, in assay [1], the Kd turned out to be 0.029 nM, the koff is 0.000483 s⁻¹ and the kon turned out to be 1.7e+07 M⁻¹ s⁻¹. In assay [2], the dissociation constant (Kd) turned out to be 0.014 nM, the off-rate (koff) came to 0.00139 s⁻¹ and the kon was found to be 1e+08 M⁻¹ s⁻¹.
